Like-named read-outs stand apart in the source and are kept apart here. Ends that are not written are not given here.
B2: LC3C (recombinant, BLI) (natural protein)
chain: MPPPQKIPSVRPFKQRKSLAIRQEEVAGIRAKFPNKIPVVVERYPRETFLPPLDKTKFLVPQELTMTQFLSIIRSRMVLRATEAFYLLVNNKSLVSMSATMAEIYRDYKDEDGFVYMTYASQETFG

Legend:
Experiment in all cases: BLI
[1] = target: GABARAP (recombinant, BLI) (human, UniProt O95166 1-117)
[2] = target: GABARAP L63I (recombinant, BLI) (human, UniProt O95166 1-117, L63I)
[3] = target: LC3B E62Q (recombinant, BLI) (human, UniProt Q9GZQ8 1-120, E62Q)
[4] = target: GABARAP F62K (recombinant, BLI) (human, UniProt O95166 1-117, F62K)
[5] = target: GABARAP R28K (recombinant, BLI) (human, UniProt O95166 1-117, R28K)
[6] = target: T1, LC3A (recombinant, BLI) (human, UniProt Q9H492 1-121)
[7] = target: T2, GABARAP-L2 (recombinant, BLI) (human, UniProt P60520 1-117)
T2 sequence (P60520 whole entry): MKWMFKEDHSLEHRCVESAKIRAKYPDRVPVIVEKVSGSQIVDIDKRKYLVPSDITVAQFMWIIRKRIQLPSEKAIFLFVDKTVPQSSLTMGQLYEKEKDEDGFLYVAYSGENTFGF

[8] = target: T3, LC3B (recombinant, BLI) (human, UniProt Q9GZQ8 1-120)
[9] = target: B2
[10] = target: GABARAP K24Q/Y25H/R28K (recombinant, BLI) (human, UniProt O95166 1-117, K24Q | Y25H | R28K)
[11] = target: GABARAP L55V (recombinant, BLI) (human, UniProt O95166 1-117, L55V)
[12] = target: LC3B Q26K/H27Y/E62Q (recombinant, BLI) (human, UniProt Q9GZQ8 1-120, Q26K | H27Y | E62Q)
[13] = target: GABARAP K24Q/Y25H/Q59E/F60L (recombinant, BLI) (human, UniProt O95166 1-117, K24Q | Y25H | Q59E | F60L)
[14] = target: T2, GABARAP-L2 (recombinant, BLI); remark: listed apart in the source
[15] = target: T3, LC3B (recombinant, BLI); remark: listed apart in the source
[16] = target: B2
[17] = target: -L1 (recombinant, BLI) (human, UniProt Q9H0R8 1-117)
-L1 (recombinant, BLI), sequence (Q9H0R8 whole entry): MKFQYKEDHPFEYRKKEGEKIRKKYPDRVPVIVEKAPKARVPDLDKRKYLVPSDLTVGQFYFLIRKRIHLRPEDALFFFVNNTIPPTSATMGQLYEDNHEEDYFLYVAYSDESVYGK

[18] = target: PCM1 LIR peptide mutated at P1962 (X7) (BLI) (UniProt Q15154, biotin (position not given))
[19] = target: GABARAP Y25H (recombinant, BLI) (human, UniProt O95166 1-117, Y25H)
[20] = target: LC3B Q26K/H27Y/K30R (recombinant, BLI) (human, UniProt Q9GZQ8 1-120, Q26K | H27Y | K30R)
[21] = target: GABARAP K24Q (recombinant, BLI) (human, UniProt O95166 1-117, K24Q)
[22] = target: GABARAP Q59E (recombinant, BLI) (human, UniProt O95166 1-117, Q59E)
[23] = target: T1, LC3A (recombinant, BLI); remark: listed apart in the source

**Q.** NISQKSDEEDFDKVEDLPLKLTIY (also: biotin, position not given here) [PCM1 V1956D LIR peptide] was tested. Which Kd [1] did it give?
**A.** 7.7 µM

**Q.** What does the source list for NISQKSDEEDFVKVEDLPLKLTIY (also: biotin, position not given here) [PCM1 LIR peptide (biotinylated, BLI)]?
**A.** Kd [2]: 2 µM; Kd [3]: 160 µM; Kd [4]: 3.8 µM; Kd [5]: 4.2 µM

B1: FYCO1 WT LIR peptide (peptide)
chain: TDYRPPDDAVFDIITDEELCQIQE
modifications: 24-mer limits inferred: 10 residues on each side of the core FDII (1280-1283), as in the arrays; exact peptide is in Supplementary Table 2. N- or C-terminal biotin if used in BLI, cellulose-bound if in the array
**Q.** How did the Kd [6] turn out when B1 was run?
**A.** 0.78 µM

**Q.** What about the Kd [7] of the same binder?
**A.** 17.4 µM

**Q.** What about the Kd [8] of the same binder?
**A.** 1.1 µM

**Q.** And the Kd [9]?
**A.** 3 µM

**Q.** And the Kd [1]?
**A.** 1.7 µM

**Q.** Which Kd [2] does the source give for PDSIDAHTFDFETIPHPNIEQTIH (also: biotin, position not given here) [FIP200 LIR peptide (biotinylated, BLI)] here?
**A.** 3.8 µM

**Q.** And the Kd [10]?
**A.** 70.3 µM

**Q.** And the Kd [11]?
**A.** 8.5 µM

**Q.** And the Kd [5]?
**A.** 12.5 µM

**Q.** For GGSSGNTHDDFVMIDFKPAFSKDD (also: biotin, position not given here) [ATG13 LIR peptide (biotinylated, BLI)], which Kd [3] is on record?
**A.** 4.5 µM

**Q.** What about the Kd [12] of the same binder?
**A.** 3.1 µM

**Q.** And the Kd [13]?
**A.** 3.3 µM

**Q.** And the Kd [14]?
**A.** 3.1 µM

**Q.** What about the Kd [15] of the same binder?
**A.** 9.6 µM

**Q.** What about the Kd [16] of the same binder?
**A.** 0.48 µM

**Q.** SDNCSGGDDDWTHLSSKEVDPSTG (also: biotin, position not given here) [p62 LIR peptide (biotinylated, BLI)] was tested. Which Kd [16] did it give?
**A.** 2.7 µM

**Q.** For TDYRPPDDAVFDIITDEELCQIQE, which Kd [17] is on record?
**A.** 0.9 µM

**Q.** Which results are given for NISQKSDEEDFVKIEDLPLKLTIY (also: biotin, position not given here) [PCM1 V1958I LIR peptide]?
**A.** Kd [7]: 7.6 µM; Kd [9]: 6.9 µM; Kd [1]: 1.5 µM

**Q.** With B2 as the binder, how does the Kd [18] read?
**A.** 10.8 µM

**Q.** For NISQKSDEEDFVIVEDLPLKLTIY (also: biotin, position not given here) [PCM1 K1957I LIR peptide (BLI)], which Kd [17] is on record?
**A.** 0.13 µM

**Q.** What about the Kd [6] of the same binder?
**A.** 3.9 µM

**Q.** And the Kd [7]?
**A.** 1.19 µM

**Q.** What about the Kd [9] of the same binder?
**A.** 0.38 µM

**Q.** What about the Kd [1] of the same binder?
**A.** 0.17 µM

**Q.** For NISQKSDEEDFVKVTDLPLKLTIY (also: biotin, position not given here) [PCM1 E1959T LIR peptide (BLI)], which Kd [17] is on record?
**A.** 2.9 µM

**Q.** What about the Kd [7] of the same binder?
**A.** 19 µM

**Q.** What about the Kd [1] of the same binder?
**A.** 3.1 µM

**Q.** How did the Kd [19] turn out when SKDSSCDTDDFVMVPAQFPGDLVA (also: biotin, position not given here) [ULK1 LIR peptide (biotinylated, BLI)] was run?
**A.** 0.26 µM

**Q.** And the Kd [12]?
**A.** 5.6 µM

**Q.** What about the Kd [10] of the same binder?
**A.** 3.2 µM

**Q.** And the Kd [13]?
**A.** 5.6 µM

**Q.** What about the Kd [4] of the same binder?
**A.** 0.15 µM

**Q.** And the Kd [20]?
**A.** 2.9 µM

**Q.** And the Kd [21]?
**A.** 0.42 µM

**Q.** What about the Kd [11] of the same binder?
**A.** 0.13 µM

**Q.** And the Kd [22]?
**A.** 0.36 µM

**Q.** And the Kd [5]?
**A.** 0.39 µM

**Q.** And the Kd [23]?
**A.** 5.9 µM

**Q.** What about the Kd [14] of the same binder?
**A.** 0.53 µM

**Q.** And the Kd [16]?
**A.** 2.5 µM

**Q.** With NISQKSDEEDFDIIEDLPLKLTIY (also: biotin, position not given here) [PCM1 FDII LIR peptide (BLI)] as the binder, how does the Kd [17] read?
**A.** 0.91 µM

**Q.** What about the Kd [6] of the same binder?
**A.** 4.6 µM

**Q.** What about the Kd [7] of the same binder?
**A.** 17 µM

**Q.** What about the Kd [8] of the same binder?
**A.** 21.8 µM

**Q.** What about the Kd [9] of the same binder?
**A.** 2.4 µM

**Q.** What about the Kd [1] of the same binder?
**A.** 1.4 µM

Source: paper PMC6499816 (2019)
